Assay results reported in US20250215412A1 (NOVOZYMES A S, published 2025).
Residue numbers refer to the chain shown, from its start. Numbers in names are those of the source. Like-named read-outs stand apart in the source and are kept apart here.

Experiments:
Assay in all cases: cell-based or functional assay
[1] = molecular target: Chryseobacterium culicis deamidase polypeptide, wildtype, with His-tag (Chryseobacterium culicis)
[2] = molecular target: T1, Chryseobacterium sp-62563 deamidase C169S (Chryseobacterium sp-62563)
T1 sequence: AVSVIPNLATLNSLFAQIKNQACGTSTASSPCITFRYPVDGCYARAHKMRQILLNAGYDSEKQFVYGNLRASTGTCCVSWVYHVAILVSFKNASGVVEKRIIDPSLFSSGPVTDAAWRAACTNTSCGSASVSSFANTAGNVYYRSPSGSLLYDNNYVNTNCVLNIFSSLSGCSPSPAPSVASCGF

[3] = molecular target: T2, Chryseobacterium sp-62563 deamidase C230H (Chryseobacterium sp-62563)
T2 sequence: T1 sequence with S60C, C121H

[4] = molecular target: T3, Chryseobacterium sp-62563 deamidase polypeptide (second polypeptide, deamidase domain), wildtype (Chryseobacterium sp-62563)
T3 sequence: T1 sequence with S60C

[5] = molecular target: T4, Chryseobacterium gambrini deamidase polypeptide, wildtype, with His-tag (Chryseobacterium gambrini)
T4 sequence: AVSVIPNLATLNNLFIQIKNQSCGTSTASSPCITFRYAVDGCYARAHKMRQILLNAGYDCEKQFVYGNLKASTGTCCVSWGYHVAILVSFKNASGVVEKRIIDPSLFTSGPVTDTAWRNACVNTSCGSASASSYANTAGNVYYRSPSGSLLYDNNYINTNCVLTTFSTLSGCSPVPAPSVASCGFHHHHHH

[6] = molecular target: T5, Chryseobacterium defluvii deamidase polypeptide, wildtype, with His-tag (Chryseobacterium defluvii)
T5 sequence: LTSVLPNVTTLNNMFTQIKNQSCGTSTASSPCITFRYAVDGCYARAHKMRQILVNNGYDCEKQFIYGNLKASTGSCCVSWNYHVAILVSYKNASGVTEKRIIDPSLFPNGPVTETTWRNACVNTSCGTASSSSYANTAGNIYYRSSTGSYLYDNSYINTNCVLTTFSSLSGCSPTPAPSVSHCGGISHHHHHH

[7] = molecular target: T6, Chryseobacterium proteolyticum deamidase polypeptide, wildtype, with His-tag (Chryseobacterium proteolyticum) (UniProt Q9AQQ8)
T6 sequence: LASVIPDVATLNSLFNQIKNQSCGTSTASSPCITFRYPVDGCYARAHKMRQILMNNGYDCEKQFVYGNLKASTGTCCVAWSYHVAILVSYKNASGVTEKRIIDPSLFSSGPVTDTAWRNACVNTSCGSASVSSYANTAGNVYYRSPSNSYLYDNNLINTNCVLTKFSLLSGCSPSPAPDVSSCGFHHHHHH

[8] = molecular target: T7, Chryseobacterium gambrini deamidase polypeptide, wildtype, with His-tag (Chryseobacterium gambrini)
T7 chain: T4 sequence

[9] = molecular target: T8, Chryseobacterium culicis deamidase polypeptide, wildtype, with His-tag (Chryseobacterium culicis)
T8 chain: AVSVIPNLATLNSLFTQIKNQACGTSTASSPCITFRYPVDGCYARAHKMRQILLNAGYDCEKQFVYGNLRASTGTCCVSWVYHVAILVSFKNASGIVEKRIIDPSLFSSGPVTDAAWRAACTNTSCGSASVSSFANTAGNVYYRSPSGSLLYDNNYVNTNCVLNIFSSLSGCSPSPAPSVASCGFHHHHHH

[10] = molecular target: T9, Chryseobacterium defluvii deamidase polypeptide, wildtype, with His-tag (Chryseobacterium defluvii)
T9 chain: T5 sequence

[11] = molecular target: T10, Chryseobacterium proteolyticum deamidase polypeptide, wildtype, with His-tag (Chryseobacterium proteolyticum, UniProt Q9AQQ8 136-320)
T10 sequence: T6 sequence

Molecule: Chryseobacterium culicis propeptide Y94P
- NanoDSF thermal unfolding temperature [1]: 82.3 ° C.

Molecule: Chryseobacterium culicis propeptide F99K + N100T + E103V + R104K + G105E + D106E + S107N + K108R
- Leakage activity [1]: 3%

Molecule: Chryseobacterium culicis propeptide F38C
- NanoDSF thermal unfolding temperature [1]: 79.5 ° C.

B1: Chryseobacterium sp-62563 propeptide F99G (protein)
chain: NQDPNLVAKESNETAMKDFGKTVPVGIEKEDGKFKISFMVTAQPYEIKDSKENAAYISMIKTAVENETPIHVFLKANTNEIAKVDKATDDDIRYFKSVGTKEVKEENRK
- Leakage activity [2]: 3%
- Relative activity of maturated deamidase (% initial rate) [2]: > 100
- Leakage activity [3]: 0%
- Leakage activity [4]: 9%
- NanoDSF thermal unfolding temperature [4]: 74.1 ° C.
- Relative activity of maturated deamidase (% initial rate) [4]: > 100

B2: Chryseobacterium gambrini propeptide I23S (protein)
chain: NQDPNLVVKENNENAMRDFGSTSPVGIQKEGNVLKVSFIISAQFYEIKDSKENEAFISMIKSAIENETPVHVFLKKNSNEIAKVEKATDEDVTYFKSIFTKEVKEENRK
- NanoDSF thermal unfolding temperature [5]: 77.2 ° C.

B3: Chryseobacterium gambrini propeptide F38C (protein)
chain: B2 chain with S23I, F38C
- NanoDSF thermal unfolding temperature [5]: 82.3 ° C.

B4: Chryseobacterium gambrini propeptide Y45T (protein)
chain: B2 chain with S23I, Y45T
- NanoDSF thermal unfolding temperature [5]: 79.3 ° C.

B5: Chryseobacterium gambrini propeptide Y94P (protein)
chain: B2 chain with S23I, Y94P
- NanoDSF thermal unfolding temperature [5]: 81.1 ° C.

B6: Chryseobacterium gambrini propeptide F99G (protein)
chain: B2 chain with S23I, F99G
- NanoDSF thermal unfolding temperature [5]: 69.3 ° C.

B7: Chryseobacterium gambrini propeptide F99A (protein)
chain: B2 chain with S23I, F99A
- NanoDSF thermal unfolding temperature [5]: 70.4 ° C.

B8: Chryseobacterium gambrini propeptide F99K (protein)
chain: B2 chain with S23I, F99K
- NanoDSF thermal unfolding temperature [5]: 78.4 ° C.

B9: Chryseobacterium defluvii propeptide Y47T (protein)
chain: ATNQDVVGKENTSNHVAARDFGKTVPVGINEENGTLKVSFILSAQFTEIKPSKENEEYISLIRQAIQNESPIHVFMKLNSNEIVKVEKGTEEDVKYFRSILTKEVKEENRK
- NanoDSF thermal unfolding temperature [6]: 80.4 ° C.

B10: Chryseobacterium defluvii propeptide L101G (protein)
chain: B9 chain with T47Y, L101G
- NanoDSF thermal unfolding temperature [6]: 79.8 ° C.

B11: Chryseobacterium defluvii propeptide L101K (protein)
chain: B9 chain with T47Y, L101K
- NanoDSF thermal unfolding temperature [6]: 80.5 ° C.

B12: Chryseobacterium defluvii propeptide L101A (protein)
chain: B9 chain with T47Y, L101A
- NanoDSF thermal unfolding temperature [6]: 82 ° C.

B13: Chryseobacterium proteolyticum propeptide L100A (protein)
chain: NQEINGKEKLSVNDSKLKDFGKTVPVGIDEENGMIKVSFMLTAQFYEIKPTKENEQYIGMLRQAVKNESPVHIFLKPNSNEIGKVESASPEDVRYFKTIATKEVKEENRK
- NanoDSF thermal unfolding temperature [7]: 80 ° C.

B14: Chryseobacterium proteolyticum propeptide L100G (protein)
chain: B13 chain with A100G
- NanoDSF thermal unfolding temperature [7]: 77.3 ° C.

B15: Chryseobacterium gambrini propeptide, wildtype (other)
chain: B2 chain with S23I
- NanoDSF thermal unfolding temperature [8]: 89.3 ° C.

B16: Chryseobacterium culicis propeptide, wildtype (other)
chain: NQDPNLVAKESNEIAMKDFGKTVPVGIEKEEGKFKVSFMVSAQPYHIKDSKENAGYISMIRQAVENETPVHIFLKTNTNEIAKVDKPTDDDIRYFKSVFTKEVKEENRK
- NanoDSF thermal unfolding temperature [9]: 85.2 ° C.

B17: Chryseobacterium defluvii propeptide, wildtype (other)
chain: B9 chain with T47Y
- NanoDSF thermal unfolding temperature [10]: 89 ° C.

B18: Chryseobacterium proteolyticum propeptide, wildtype (other)
chain: B13 chain with A100L
- NanoDSF thermal unfolding temperature [11]: 87.3 ° C.
